From the supplement of paper PMC10567573

B1: EPB41L3 (parent)
chain: GSKFRYSGRTQAQTRRASALIDRP

Variants of: B1
Assay: protein stability index of a GFP-peptide fusion (GPS, HEK-293T) (PSI 1-6); higher = more stable
Settings: c terminus: a fixed tail appended
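Also: lentivirally expressed fusions sorted by FACS into six bins by GFP to DsRed ratio, PSI derived from sequencing read proportions per bin multiplied by bin number.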

Going from T10M to T10G, the protein stability index rises from 2.39 to 3.66.

Going from T10D to T10H, the protein stability index falls from 3.56 to 3.27.

Compared with T10W, T10A is higher in protein stability index: 1.82 for the first, 2.97 for the second.

First: T10L
Second: T10I
The protein stability index of the first is higher: 3.1 for the first, 2.37 for the second.

Compared with T10Q, T10Y is lower in protein stability index: 3.1 for the first, 2.39 for the second.

Compared with T10V, T10C is lower in protein stability index: 2.84 for the first, 1.97 for the second.

Compared with T10S, T10N is higher in protein stability index: 2.83 for the first, 3.19 for the second.

Compared with Q13A, Q13M is lower in protein stability index: 2.84 for the first, 2.47 for the second.

Going from Q13R to Q13P, the protein stability index falls from 3.25 to 2.69.

Going from Q13G to Q13W, the protein stability index falls from 3.49 to 1.97.

Compared with Q13Y, Q13S is higher in protein stability index: 2.46 for the first, 3.27 for the second.

Going from Q13D to Q13H, the protein stability index falls from 3.08 to 2.65.

First: Q13F
Second: R23G
The protein stability index of the first is lower: 2.69 for the first, 3.01 for the second.

Going from R23N to R23M, the protein stability index falls from 2.67 to 2.41.

Compared with R23H, R23T is lower in protein stability index: 3.16 for the first, 2.58 for the second.

Compared with R23L, R23Y is lower in protein stability index: 2.71 for the first, 2.5 for the second.

Going from R23P to R23S, the protein stability index falls from 3.02 to 3.01.

First: R23Q
Second: R23D
The protein stability index of the first is lower: 3.12 for the first, 3.44 for the second.

Compared with A17S, A17G is higher in protein stability index: 3.12 for the first, 3.22 for the second.

Going from A17W to A17H, the protein stability index rises from 2.21 to 2.57.

First: A17R
Second: A17N
The protein stability index of the first is higher: 3.25 for the first, 3.19 for the second.

Going from A17M to A17D, the protein stability index rises from 3.02 to 3.41.

Going from A17I to A17V, the protein stability index falls from 3.25 to 2.66.

Compared with T14N, T14C is lower in protein stability index: 3.72 for the first, 1.88 for the second.

Compared with T14E, T14L is lower in protein stability index: 3.21 for the first, 2.7 for the second.

Compared with T14S, T14K is higher in protein stability index: 2.67 for the first, 3.44 for the second.

Going from T14P to T14R, the protein stability index rises from 2.62 to 3.44.

Compared with T14F, T14Q is higher in protein stability index: 2.8 for the first, 2.81 for the second.

Compared with A12P, A12D is higher in protein stability index: 3.17 for the first, 3.37 for the second.

Going from A12N to A12Q, the protein stability index falls from 3.08 to 3.06.

Going from A12M to A12V, the protein stability index falls from 2.73 to 1.93.

First: A12G
Second: A12F
The protein stability index of the first is higher: 3.11 for the first, 2.04 for the second.

First: A12T
Second: S7D
The protein stability index of the first is lower: 2.93 for the first, 3.68 for the second.

Compared with S7R, S7M is lower in protein stability index: 3.73 for the first, 3.35 for the second.

Compared with S7N, S7C is lower in protein stability index: 3.05 for the first, 2.1 for the second.

First: S7T
Second: S7Q
The protein stability index of the first is higher: 2.95 for the first, 2.86 for the second.

First: S7Y
Second: S7V
The protein stability index of the first is higher: 2.71 for the first, 2.15 for the second.

First: D22Y
Second: D22Q
The protein stability index of the first is lower: 2.29 for the first, 3.54 for the second.

First: D22P
Second: D22E
The protein stability index of the first is lower: 3.09 for the first, 3.72 for the second.

Going from D22K to D22A, the protein stability index falls from 2.7 to 2.63.

First: D22L
Second: D22H
The protein stability index of the first is lower: 2.99 for the first, 3.7 for the second.

Compared with D22F, D22R is higher in protein stability index: 3.4 for the first, 3.45 for the second.

Going from D22G to D22T, the protein stability index rises from 2.67 to 3.02.

First: R9H
Second: R9N
The protein stability index of the first is lower: 2.93 for the first, 3.7 for the second.

Going from R9L to R9Y, the protein stability index falls from 2.92 to 2.4.

First: R9V
Second: R9C
The protein stability index of the first is lower: 2.85 for the first, 2.94 for the second.

Going from R9M to R9A, the protein stability index rises from 2.85 to 2.88.

Going from R9E to R9G, the protein stability index falls from 3.53 to 3.32.

Compared with R9Q, S18L is lower in protein stability index: 3.32 for the first, 3.01 for the second.

Going from S18T to S18F, the protein stability index falls from 2.29 to 2.16.

Compared with S18M, S18Q is higher in protein stability index: 2.71 for the first, 3.19 for the second.

Compared with S18P, S18C is lower in protein stability index: 3.73 for the first, 2.5 for the second.

First: S18Y
Second: S18W
The protein stability index of the first is lower: 2.27 for the first, 2.58 for the second.

First: S18D
Second: S18N
The protein stability index of the first is higher: 3.52 for the first, 3.25 for the second.

Going from S18A to S18E, the protein stability index rises from 3.02 to 3.62.

Going from S18V to S18K, the protein stability index rises from 2.85 to 3.29.

Compared with G8R, G8N is lower in protein stability index: 4.01 for the first, 3.13 for the second.

First: G8A
Second: G8F
The protein stability index of the first is higher: 3.41 for the first, 2.96 for the second.

Going from G8Y to G8S, the protein stability index rises from 2.7 to 3.46.

Going from G8L to G8V, the protein stability index falls from 3.44 to 3.07.

Compared with G8E, G8T is higher in protein stability index: 3.52 for the first, 4.1 for the second.

First: G8K
Second: G8C
The protein stability index of the first is higher: 3.44 for the first, 1.72 for the second.

Going from L20E to L20W, the protein stability index falls from 3.89 to 3.23.

Compared with L20H, L20P is lower in protein stability index: 3.37 for the first, 3.15 for the second.

First: L20V
Second: L20Y
The protein stability index of the first is higher: 3.52 for the first, 3.02 for the second.

Going from L20M to L20G, the protein stability index falls from 3.59 to 3.16.

First: P24L
Second: P24D
The protein stability index of the first is lower: 2.56 for the first, 3.56 for the second.

First: P24Q
Second: P24M
The protein stability index of the first is lower: 2.79 for the first, 3 for the second.

Compared with P24S, P24F is higher in protein stability index: 2.8 for the first, 3.05 for the second.

First: P24A
Second: P24W
The protein stability index of the first is higher: 2.57 for the first, 2.32 for the second.

Compared with F4G, F4A is higher in protein stability index: 3.62 for the first, 4.23 for the second.

Compared with F4S, F4N is higher in protein stability index: 4.04 for the first, 4.4 for the second.

Compared with F4D, F4C is lower in protein stability index: 4.17 for the first, 3.4 for the second.

Compared with F4M, F4W is lower in protein stability index: 3.48 for the first, 2.86 for the second.

First: F4L
Second: F4R
The protein stability index of the first is lower: 3.95 for the first, 4.42 for the second.

Compared with F4H, F4T is higher in protein stability index: 3.83 for the first, 4.17 for the second.

First: F4P
Second: R16Q
The protein stability index of the first is higher: 3.47 for the first, 3.31 for the second.

Going from R16A to R16L, the protein stability index rises from 2.63 to 3.11.

Going from R16I to R16F, the protein stability index rises from 2.72 to 2.9.

First: R16M
Second: R16Y
The protein stability index of the first is lower: 2.67 for the first, 2.78 for the second.

Compared with R16G, R16E is lower in protein stability index: 3.87 for the first, 3.34 for the second.

Compared with R16W, R16C is higher in protein stability index: 2.41 for the first, 2.52 for the second.

First: Y6H
Second: Y6F
The protein stability index of the first is higher: 3.22 for the first, 2.96 for the second.

Compared with Y6S, Y6L is lower in protein stability index: 3.85 for the first, 3.15 for the second.

Compared with Y6M, Y6R is lower in protein stability index: 4.64 for the first, 4.23 for the second.

Going from Y6G to Y6Q, the protein stability index falls from 3.91 to 3.71.

Compared with Y6C, Y6P is higher in protein stability index: 3.51 for the first, 3.68 for the second.

First: Y6T
Second: A19G
The protein stability index of the first is higher: 4.35 for the first, 2.91 for the second.

First: A19C
Second: A19R
The protein stability index of the first is lower: 2.74 for the first, 3.43 for the second.

First: A19D
Second: A19L
The protein stability index of the first is higher: 3.6 for the first, 3.12 for the second.

First: A19M
Second: A19S
The protein stability index of the first is lower: 3.07 for the first, 3.41 for the second.

Going from R5C to R5A, the protein stability index rises from 2.67 to 3.49.

Compared with R5D, R5V is lower in protein stability index: 3.74 for the first, 3.2 for the second.

Compared with R5L, R5N is higher in protein stability index: 2.71 for the first, 3.23 for the second.

Going from R5E to R5K, the protein stability index falls from 4.08 to 2.73.

Compared with R5I, R5T is higher in protein stability index: 3.07 for the first, 3.59 for the second.

Compared with R5W, R5M is higher in protein stability index: 2.62 for the first, 4.43 for the second.

Going from R5H to Q11M, the protein stability index falls from 3.1 to 1.94.

Going from Q11T to Q11P, the protein stability index rises from 2.57 to 3.46.

Going from Q11G to Q11R, the protein stability index rises from 3.16 to 3.78.

Compared with Q11E, Q11V is lower in protein stability index: 3.29 for the first, 2.78 for the second.

Compared with I21F, I21H is higher in protein stability index: 2.97 for the first, 3.32 for the second.

Going from I21E to I21V, the protein stability index falls from 3.4 to 3.2.

Going from I21N to I21S, the protein stability index falls from 3.95 to 3.

Compared with I21C, I21T is higher in protein stability index: 2.64 for the first, 3.21 for the second.

Compared with I21R, I21G is higher in protein stability index: 3.71 for the first, 3.9 for the second.

Going from I21Q to I21A, the protein stability index rises from 3.06 to 3.78.

Going from I21M to G1I, the protein stability index falls from 3.6 to 2.53.

First: G1T
Second: G1E
The protein stability index of the first is lower: 3.08 for the first, 3.62 for the second.

First: G1H
Second: G1C
The protein stability index of the first is higher: 3.03 for the first, 2.88 for the second.

Compared with G1V, G1F is lower in protein stability index: 2.43 for the first, 2.12 for the second.

First: G1P
Second: G1S
The protein stability index of the first is higher: 2.99 for the first, 2.33 for the second.

First: G1L
Second: G1W
The protein stability index of the first is higher: 2.53 for the first, 2.33 for the second.

Going from G1Y to S2D, the protein stability index rises from 1.85 to 4.02.

Compared with S2P, S2V is lower in protein stability index: 2.6 for the first, 2.5 for the second.

Going from S2H to S2Q, the protein stability index falls from 2.98 to 2.77.

First: S2R
Second: S2E
The protein stability index of the first is lower: 2.51 for the first, 3.98 for the second.

First: R15I
Second: R15Y
The protein stability index of the first is higher: 2.66 for the first, 2.54 for the second.

R15G and R15S are the same in protein stability index: 2.81 for the first, 2.81 for the second.

Compared with R15D, R15K is lower in protein stability index: 3.2 for the first, 2.83 for the second.

First: R15H
Second: R15P
The protein stability index of the first is lower: 2.97 for the first, 3.3 for the second.

First: R15Q
Second: R15L
The protein stability index of the first is higher: 2.9 for the first, 2.64 for the second.

First: K3G
Second: K3W
The protein stability index of the first is lower: 1.94 for the first, 2.46 for the second.

First: K3M
Second: K3N
The protein stability index of the first is lower: 2.84 for the first, 3.08 for the second.

Compared with K3T, K3Y is lower in protein stability index: 2.74 for the first, 1.89 for the second.

Going from K3L to K3A, the protein stability index falls from 2.92 to 2.02.

First: K3F
Second: K3C
The protein stability index of the first is higher: 2.34 for the first, 1.75 for the second.

Compared with K3E, K3Q is higher in protein stability index: 2.19 for the first, 2.96 for the second.
